Laboratory results from patent US6951717.

Target: viral gp41 (HIV-1 transmembrane protein) of HIV-1IIIB (HIV-1IIIB) (UniProt P04578)
Assay: cell-based or functional assay

Substance	Cell fusion (IC90) [nM]	HIV infectivity (IC90) [nM]
DP107 (SEQ ID NO:25), synthetic peptide corresponding to amino acids 558 to 595 of HIV-1LAI gp41	1000	1000
DP178 (SEQ ID NO:1), synthetic peptide corresponding to amino acids 638 to 673 of HIV-1LAI gp41	1	80
M41 (maltose binding protein fused to the extracellular domain of HIV-1 gp41, residues 540-686) (from UniProt P0AEX9 27-392; P03377 540-686)	> 50000	> 16000
M41-P (M41 with an Ile to Pro mutation at position 578) (from UniProt P0AEX9 27-392; P03377 540-686)	83	66
